Experimental data as given in FireProtDB (doi:10.1016/s0167-4838(98)00243-x).
Where “and” joins values, the source holds several entries; their conditions need not be identical. Equal values may be shown once.

B1: Chitosanase, P33665 (parent)
chain: MHSQHRTARIALAVVLTAIPASLATAGVGYASTQASTAVKAGAGLDDPHKKEIAMELVSSAENSSLDWKAQYKYIEDIGDGRGYTGGIIGFCSGTGDMLELVQHYTDLEPGNILAKYLPALKKVNGSASHSGLGTPFTKDWATAAKDTVFQQAQNDERDRVYFDPAVSQAKADGLRALGQFAYYDAIVMHGPGNDPTSFGGIRKTAMKKARTPAQGGDETTYLNAFLDARKAAMLTEAAHDDTSRVDTEQRVFLKAGNLDLNPPLKWKTYGDPYVINS

Variants of: B1
Settings: Streptomyces sp. (strain N174); pH 7; 42.7 °C; Thermal; CD; sodium phosphate 50 mM; transition: 3; reversible: yes(77%); structure 1CHK; whole UniProt chain shown

Variant	ddG of mutation (higher = less stable) [kcal/mol]
MHSQHRTARIALAVVLTAIPASLATAGVGYASTQASTAVKAGAGLDDPHKKEIAMELVSSAENSSLDFKAQYKYIEDIGDGRGYTGGIIGFCSGTGDMLELVQHYTDLEPGNILAKYLPALKKVNGSASHSGLGTPFTKDWATAAKDTVFQQAQNDERDRVYFDPAVSQAKADGLRALGQFAYYDAIVMHGPGNDPTSFGGIRKTAMKKARTPAQGGDETTYLNAFLDARKAAMLTEAAHDDTSRVDTEQRVFLKAGNLDLNPPLKWKTYGDPYVINS [W68F]	3.56

Same assay, conditions: Streptomyces sp. (strain N174); pH 7; 43.2 °C; Thermal; Fluorescence; sodium phosphate 50 mM; reversible: yes(75%); structure 1CHK; whole UniProt chain shown

Variant	ddG of mutation (higher = less stable) [kcal/mol]
MHSQHRTARIALAVVLTAIPASLATAGVGYASTQASTAVKAGAGLDDPHKKEIAMELVSSAENSSLDFKAQYKYIEDIGDGRGYTGGIIGFCSGTGDMLELVQHYTDLEPGNILAKYLPALKKVNGSASHSGLGTPFTKDWATAAKDTVFQQAQNDERDRVYFDPAVSQAKADGLRALGQFAYYDAIVMHGPGNDPTSFGGIRKTAMKKARTPAQGGDETTYLNAFLDARKAAMLTEAAHDDTSRVDTEQRVFLKAGNLDLNPPLKWKTYGDPYVINS [W68F]	4.43

Same assay, conditions: Streptomyces sp. (strain N174); pH 7; 52.2 °C; Thermal; CD; sodium phosphate 50 mM; transition: 3; reversible: yes(77%); structure 1CHK; whole UniProt chain shown

Variant	ddG of mutation (higher = less stable) [kcal/mol]
MHSQHRTARIALAVVLTAIPASLATAGVGYASTQASTAVKAGAGLDDPHKKEIAMELVSSAENSSLDFKAQYKYIEDIGDGRGYTGGIIGFCSGTGDMLELVQHYTDLEPGNILAKYLPALKKVNGSASHSGLGTPFTKDWATAAKDTVFQQAQNDERDRVYFDPAVSQAKADGLRALGQFAYYDAIVMHGPGNDPTSFGGIRKTAMKKARTPAQGGDETTYLNAFLDARKAAMLTEAAHDDTSRVDTEQRVFLKAGNLDLNPPLKWKTYGDPYVINS [W68F]	1.76

Same assay, conditions: Streptomyces sp. (strain N174); pH 7; Thermal; CD; sodium phosphate 50 mM; transition: 3; reversible: yes(77%); structure 1CHK; whole UniProt chain shown

Variant	Tm [°C]	change of melting temperature, mutant - wild type (higher = more stable) [°C]	unfolding enthalpy (van 't Hoff) [kcal/mol]
MHSQHRTARIALAVVLTAIPASLATAGVGYASTQASTAVKAGAGLDDPHKKEIAMELVSSAENSSLDFKAQYKYIEDIGDGRGYTGGIIGFCSGTGDMLELVQHYTDLEPGNILAKYLPALKKVNGSASHSGLGTPFTKDWATAAKDTVFQQAQNDERDRVYFDPAVSQAKADGLRALGQFAYYDAIVMHGPGNDPTSFGGIRKTAMKKARTPAQGGDETTYLNAFLDARKAAMLTEAAHDDTSRVDTEQRVFLKAGNLDLNPPLKWKTYGDPYVINS [W68F]	45.2	-7	80

Same assay, conditions: Streptomyces sp. (strain N174); pH 7; Thermal; Fluorescence; sodium phosphate 50 mM; reversible: yes(75%); structure 1CHK; whole UniProt chain shown

Variant	Tm [°C]	change of melting temperature, mutant - wild type (higher = more stable) [°C]	unfolding enthalpy (van 't Hoff) [kcal/mol]
MHSQHRTARIALAVVLTAIPASLATAGVGYASTQASTAVKAGAGLDDPHKKEIAMELVSSAENSSLDFKAQYKYIEDIGDGRGYTGGIIGFCSGTGDMLELVQHYTDLEPGNILAKYLPALKKVNGSASHSGLGTPFTKDWATAAKDTVFQQAQNDERDRVYFDPAVSQAKADGLRALGQFAYYDAIVMHGPGNDPTSFGGIRKTAMKKARTPAQGGDETTYLNAFLDARKAAMLTEAAHDDTSRVDTEQRVFLKAGNLDLNPPLKWKTYGDPYVINS [W68F]	36.2	-7	196

Same assay, conditions: Streptomyces sp. (strain N174); pH 7; 42.7 °C; Thermal; CD; sodium phosphate 50 mM; transition: 3; reversible: yes(68%); structure 1CHK; whole UniProt chain shown

Variant	ddG of mutation (higher = less stable) [kcal/mol]
MHSQHRTARIALAVVLTAIPASLATAGVGYASTQASTAVKAGAGLDDPHKKEIAMELVSSAENSSLDFKAQYKYIEDIGDGRGYTGGIIGFCSGTGDMLELVQHYTDLEPGNILAKYLPALKKVNGSASHSGLGTPFTKDFATAAKDTVFQQAQNDERDRVYFDPAVSQAKADGLRALGQFAYYDAIVMHGPGNDPTSFGGIRKTAMKKARTPAQGGDETTYLNAFLDARKAAMLTEAAHDDTSRVDTEQRVFLKAGNLDLNPPLKWKTYGDPYVINS [W68F W141F]	5.8

Same assay, conditions: Streptomyces sp. (strain N174); pH 7; 43.2 °C; Thermal; Fluorescence; sodium phosphate 50 mM; reversible: yes(80%); structure 1CHK; whole UniProt chain shown

Variant	ddG of mutation (higher = less stable) [kcal/mol]
MHSQHRTARIALAVVLTAIPASLATAGVGYASTQASTAVKAGAGLDDPHKKEIAMELVSSAENSSLDFKAQYKYIEDIGDGRGYTGGIIGFCSGTGDMLELVQHYTDLEPGNILAKYLPALKKVNGSASHSGLGTPFTKDFATAAKDTVFQQAQNDERDRVYFDPAVSQAKADGLRALGQFAYYDAIVMHGPGNDPTSFGGIRKTAMKKARTPAQGGDETTYLNAFLDARKAAMLTEAAHDDTSRVDTEQRVFLKAGNLDLNPPLKWKTYGDPYVINS [W68F W141F]	8.03

Same assay, conditions: Streptomyces sp. (strain N174); pH 7; 52.2 °C; Thermal; CD; sodium phosphate 50 mM; transition: 3; reversible: yes(68%); structure 1CHK; whole UniProt chain shown

Variant	ddG of mutation (higher = less stable) [kcal/mol]
MHSQHRTARIALAVVLTAIPASLATAGVGYASTQASTAVKAGAGLDDPHKKEIAMELVSSAENSSLDFKAQYKYIEDIGDGRGYTGGIIGFCSGTGDMLELVQHYTDLEPGNILAKYLPALKKVNGSASHSGLGTPFTKDFATAAKDTVFQQAQNDERDRVYFDPAVSQAKADGLRALGQFAYYDAIVMHGPGNDPTSFGGIRKTAMKKARTPAQGGDETTYLNAFLDARKAAMLTEAAHDDTSRVDTEQRVFLKAGNLDLNPPLKWKTYGDPYVINS [W68F W141F]	1.51

Same assay, conditions: Streptomyces sp. (strain N174); pH 7; Thermal; CD; sodium phosphate 50 mM; transition: 3; reversible: yes(68%); structure 1CHK; whole UniProt chain shown

Variant	change of melting temperature, mutant - wild type (higher = more stable)	unfolding enthalpy (van 't Hoff)
MHSQHRTARIALAVVLTAIPASLATAGVGYASTQASTAVKAGAGLDDPHKKEIAMELVSSAENSSLDFKAQYKYIEDIGDGRGYTGGIIGFCSGTGDMLELVQHYTDLEPGNILAKYLPALKKVNGSASHSGLGTPFTKDFATAAKDTVFQQAQNDERDRVYFDPAVSQAKADGLRALGQFAYYDAIVMHGPGNDPTSFGGIRKTAMKKARTPAQGGDETTYLNAFLDARKAAMLTEAAHDDTSRVDTEQRVFLKAGNLDLNPPLKWKTYGDPYVINS [W68F W141F]	-11.4 °C and -8 °C	155 kcal/mol and 60 kcal/mol

Same assay, conditions: Streptomyces sp. (strain N174); pH 7; Thermal; Fluorescence; sodium phosphate 50 mM; reversible: yes(80%); structure 1CHK; whole UniProt chain shown

Variant	Tm [°C]	change of melting temperature, mutant - wild type (higher = more stable) [°C]	unfolding enthalpy (van 't Hoff) [kcal/mol]
MHSQHRTARIALAVVLTAIPASLATAGVGYASTQASTAVKAGAGLDDPHKKEIAMELVSSAENSSLDFKAQYKYIEDIGDGRGYTGGIIGFCSGTGDMLELVQHYTDLEPGNILAKYLPALKKVNGSASHSGLGTPFTKDFATAAKDTVFQQAQNDERDRVYFDPAVSQAKADGLRALGQFAYYDAIVMHGPGNDPTSFGGIRKTAMKKARTPAQGGDETTYLNAFLDARKAAMLTEAAHDDTSRVDTEQRVFLKAGNLDLNPPLKWKTYGDPYVINS [W68F W141F]	31.2	-12	204
